16 sequences from the DeepSol protein solubility set can be followed below.

The data set can be described thus: soluble on expression in E. coli; label from the status in PepcDB or PDB records.
Take “MISEGCEQCAKGGKMVLFVYGYCDQRDCFYCPLGENRKNVTQMYANERPIEDDADVIEEAKRMSALGTSITGGEPQEVLDRTCHYLELLKDEFGEDHHTHLYTGIPGGRENMRRLSEAGLDEIRFHPPLEQWGDLHGTEWEDILYIAREEGLTPAFEIPGIRAEEEFLEFLDEGAADFCNINEFEMSDGNYRRMQEEGFELKEDHMSAVEGSHDILEKMGDHEKVYFCTSVFKDAAQHRSRLKRMARNIRRPFDDVTDDGTLVYGKAWTSEARLETLGVPEEYYTVKSEHVELAWWLLEEMVEEGDVEKGEIVEQYPTYDGTVVERTPLSNGADAGRATADD”: the “soluble on expression in E. coli” value is “not soluble”.
Consider “ASPNSPKDNTWIQAASLTWLMDMSSLLYQLISTRIPSFASPNGLHMREQTIDSNTGQIQIDNEHRLLRWDRRPPNDIFLNGFIPRVTNQNLSPVEDTHLLNYLRTNSPSIFVSTTRARYNNLGLEITPWTPHSANNNIIYRYEIFAPGGIDINASFSRNHNPFPNEDEITFPGGIRPEFIRSTYEYHNGEIVRIWINPNFINPSTLNDVSGPSNISKVFWHENHSEGNNMDSKGFILDLDYNQDFDMFAPNGEIPNNNLLNNNSLNVIQNSEYQIKNKKDRNIVVTLDSDYGGSPVESYKNFGFENQKWNIKYDSKKNAYKIYNRETPTLLLSWNSNSSNGEQVIRGYTESGSNNQYWTIEKNVNGFYKFRNLSDPSKILDLKDGNTLNKTPLVVSSENSSSSQEWLIEKTNYQTVKDGTYQVSSKLNENKVIEQISTNKVHIFSNSDKENQVWNLIYNPILKAYKIKSLKYPNYSLAWDSNNTRTIVAATGDYNDQYWLIERNEDNTYIIRNYENRKIVLDLSNGSTTDGNGLLGFEFHGGINQRWIIKPFSFNSIQDGIYQFMTVINQDLIADLTTNNYTIATKTNNYSSNQKWTVTYNDKKRAYKIRNLQHAHLSLAWDSNHSDKIFGATGDYDDQYWIPILQTDGSFIFRNYKNPNKIFGTNGQPINDIPLKAQDVTGQNNQKWYLRHLNSSNNFTGYFNISSKKNFNKIITMNSNKTQAVIFDNIGINNQSWKLKYNDNKNAYQIHILDNFLYFQGGHNIVATMRNVTNDDLRSYWYVEYNFNKDGFIIRNAFDTSYVLDVFQGNFANNTPIITYQNYLNDNQLWNFIPSLGVEPR”, for which the “soluble on expression in E. coli” value is “soluble”.
As to “MSLIRKREFDMPIKIPDTLPAFETLVHEGVRVMTETAAIRQDIRPLQIGLLNLMPNKIKTEIQMARLVGASPLQVELSLIRIGGHRAKNTPEEHLLSFYQTWEEVRHRKFDGFIITGAPIELLDYEDVTYWNEMQQIFEWTQTNVHSTLNVCWGAMAAIYHFHGVPKYELKEKAFGVYRHRNLSPSSIYLNGFSDDFQVPVSRWTEVRRADIEKHPELEILMESDEMGVCLAHEKAGNRLYMFNHVEYDSTSLADEYFRDVNSGVPIKLPHDYFPHNDPELAPLNRWRSHAHLFFGNWINEIYQTTPYDPQAIGKLAAEGHHHHHH”, the “soluble on expression in E. coli” value is given as “soluble”.
To “GSHMQTHAARMRTFMYWPSSVPVQPEQLASAGFYYVGRNDDVKCFCCDGGLRCWESGDDPWVEHAKWFPRCEFLIRMKGQEFVDEIQGRYPHLLEQLLSTS” belongs “soluble”.
As to “MSKFNLGIAKAGKTVNNEGAIAYSMSDKEKLVTQVLTSFFNENKFYGDNSQDILNTVRNVIKNEAAFVANLCIFARKEMHLRTISHVLVSELAKSTEGKEYVRRTLNEIIERPDDMTEVLAYYINTYGKPIPNSIKKGLADSFGKFDEYQLAKYNRKNAVKLKDILCLVHPKAKDEIQNDLWKRLLEDRLETPVTWETELSLKGNTKEVWERLIDENRLGYMAMMRNLRNIIKSGASNMDKVYEYLTDEERVLKNKQLPFRYYSAYKVLRNEGIGTSKIYDALEIAIKISTKNIDRLPGKTLIAADVSGSMNFPVSAKSDLTCAEVAVLMLSIANYICEESITMTFDDNLYACNLSTQNGIIANANSIKVNGGGTDITLPLRYLLDKRIFVDRIILLSDNEINAVYTYDTGRDKPKTCQALVERYKKWINPNVWVHAIDMQGYGTQQFKGQNVNIIAGWSERVFDFISSVEQGIDTLIGKISGYYFK”, the “soluble on expression in E. coli” value is listed as “soluble”.
To “MSKTTLVERCYKYIMSNEKNWSPYTVINRKSWVKNYIEPFFKDTKLIDINPVLIQTFINTTFNNCTFSSSKIRYRFISSVLKEAYRLREINENPCDFVKLPLEHHHHHH” belongs “soluble”; to “MDAVSKAAIRLLDTIGITGVTKVNTYAGPEQEYFLIDKKFYAQRPDLIMTGRTLLGALPPKGQQLEDHYFGSIPDRVLEFMQEVEEELFLLGIPAKTRHNEVAPHQFEIAPIFEQVNLASDHNLLVMEVMRKVADKKGFALLLFEKPFAGINGSGKHNNWSIGIDGGMNLLDPGDTPESNISFLVFLVAVLKGVLKRSAILRASVASIGNDHRLGANEAPPAVITVFLGDLLEKVLDAIESGKVDLKTEKQILDLGLSHVPVLNKDYTDRNRTSPFAFTGNKFEFRAVGSSQPISVPNMVLNTIMAEALDDLNAEILAKIEGGMAKEDAILAAVRDGIIATKAVRYPGDNYSEDLQRAAAERGLPNMKNTPESVRAWTDKDTVSMFVKYGVLTAEEIESRYNVRIERYVKGIDI”, “not soluble”.
Turning to “MPFGLKSSQSIDDKFMSITQMKNLIHYVKKNDALSHLCIYILIITGSRFKPVQHLRYEDLNFKKSCIHLNDTKNKYSKRNVKVRIKDLEYIQSVINKHPINQNGYIFHNFINFISYSAINDVLVRFCLKYKYDKYTLKSLRHTHCSYLLAKGISIQYISKRLGHADIHTTLKIYSHLIKEFEDSENSLIEKNLNDLFSDLEHHHHHH”, the “soluble on expression in E. coli” value is reported as “soluble”.
In the case of “MSLEGEKRVELHLHSPMSQMDAVTGIGKLVEQAKKWGHEAIALTDHAVVQSFPDAYSAAKKHGIKMIYGMEANLVDDGVPIAYNAAHRLLEEETYVVFDVETTGLSAVYDTIIELAAVKVKGGEIIDKFEAFANPHRPLSATIIELTGITDDMLQDAPDVVDVIRDFREWIGDDILVAHNASFDMGFLNVAYKKLLEVEKAKNPVIDTLELGRFLYPEFKNHRLNTLCKKFDIELTQHHRAIYDTEATAYLLLKMLKDAAEKGIQYHDELNENMGQSNAYQRSRPYHATLLAVNSTGLKNLFKLVSLSHIHYFYRVPRIPRSQLEKYREGLLIGSACDRGEVFEGMMQKSPEEVEDIASFYDYLEVQPPEVYRHLLELELVRDEKALKEIIANITKLGEKLNKPVVATGNVHYLNDEGHHHHHH”, the “soluble on expression in E. coli” value was “soluble”.
Take “MGSDKIHHHHHHMDNIKQLSRLIIFAEVVQQGSFTGAAKQLGITKSAVSQQIKSLEADMDIRVLNRTTRGVSTTALGQKLLSRCQVLKDQVDLIFKDIVNAEENPRGRFAITLPHSLESNVVMPAIEQLCIEYPGIEPEIIVSDSSLDLVENNLDVAIHAGDLPDSSYRALPIGTITEIFCATPLYLNKNFTPQKLSDLAQLKWISTSWQKQKMSVYNSTNKEKVTIELTQFSKVNTFSTALAMALRHLGLVLLPDNVAKPLIKSGELVHIMEQFTGPVWPVHTLHAYQREKPVHLTRFHQLLCNHFHNL”: the “soluble on expression in E. coli” value is listed as “not soluble”.
For “IVPDAQDLGKSYGIRPSFIIAQAALDSDFGEKILANKYHNLFGLLAEPGTPSITLNDSSTGKKQEKQFTHYKSWKYSMYDYLAHIKSGATGKKDSYTIMVSVKNPKTLVQKLQDSGFDNDKKYAKKMTEIIDLYDL”, the “soluble on expression in E. coli” value was “not soluble”.
With “MSGARRDNRRSNGRDDSSRVAKAENDRKPGRENRGGDEKRGNSNNAARSGGGGGGNRGGAERGIAPAQQPYDNNGGHRSGGGGGRSGGGGTSFNGAAFTESQLMDEVPKKKFTGRCRLFVGNLPNEVKETELKELFSPHGDIAECYLSGKGFAFLRLDTRAHAESAKEAIDGRIIHGRQVRVRFAVHGAAIRVKELSPTVSNEMLYHAFSHFGDVERAVHIVDEKGRPTGEGIVEFERKPNCNEAMAAIRDKVFLLTASPKPLICEVLEPRDEDDGLAERMIPRTPGLSKERELGPRFPTPNSFEYVYGMKWKELYVVEQKRRAQLDEELRESRRRLESDMELAYQDYQAQMLREDLQRRQQELERLEAARRERMRGLGGPPPGMPGGVPPQAQPFNPHGGSMFGGPGGPGGPPPFGQPFQQAPQGMFNVPTGPPPLMGGGGDPRGPPGGMGGPPGHGGMGGPPGHGGQGGPPGHGGMGGPPPGQGGPGVRETWRSWRNASKSHGRSNMIEGVQRLLQIFKSDNGPPGGMPGRDYPPQQGPGGMFGSYGDGGYPPEKKQRR” the entry was “not soluble”.
On to “MIKYARQIYSTKQEVIMATYFSDNLTADQQNQVQQIIQQFQHPTLQKDLIVLNTLKKVEKGGDTLRIELQLPFAWNSGAEQLKQAVSDALLKATDCKLIKWAVAYQIATLKRANNQPAVKGVKNIIAVSSGKGGVGKSSVSVNLALALQAQGARVGILDADIYGPSIPHMLGAADQRPTSPDNQHITPIKAHGLSANSIGFLMNEDSATIWRGPMASSALSQLLNETLWDSLDYLVIDMPPGTGDIQLTLSQQIPVTGAVVVTTPQDIALLDAVKGISMFERVSVPVLGIVENMSMHICSECGHHEAIFGTGGAEKMAEKYNVKVLAQLPLHIRIREDLDAGNPTVVRVPENEISQAFLQLAEKVSTELYWQGSVIPSEILFKEVKLEHHHHHH”, for which the “soluble on expression in E. coli” value was “soluble”.
As to “QNSWDSLQPDREQVIASLNVVELLKRHHYNKPPLNDERSAKIYDSYLKMLDPARMYFTAGDIAEFDRWRNRFDDFLKSGDLDPGFVIYKRHLDRLKGRLDYALAMLDKGVDKIDFSVDESLLIDREKAPWAKDTAELDDLWRKKVKDEVLRLKITGKDDKAIQEQLTKRYKNQLSRLKQTRSEDIFQAYINAFAQSYDPHTQYLSPDNAENFDINMSLSLEGIGAVLQSDNDYVKVVRLVPAGPAAKSKQIATSDKIIGVAQGKGEMVDVVGWRLDEVVKLIRGPKGSQVRLEVIPASNAPNDQTSKIVAITREAVKLEDQAAKKSIIKVDHEGRSYKLGVIDLPAFYLDFKAYRAGDPNYKSTTRDVKKLVAELQKDKVDGIVLDLRNNGGGSLQEATELTGLFIDQGPTVLVRNSDGRVDVLNDDEGKAFYTGPLAVLVNRLSASASEIFAGAMQDYHRALILGGQTFGKGTVQTIQPLNHGELKLTLAKFYRVSGQSTQHQGVIPDISYPSIVDDKEIGESALPDSMPWDTIRPVVKDEANPFKPFLAQLKAQHDARTENNADFVYARERLALAQELMKEKTVSLNEAKRRAQQTSIENRQLAMENALRKSKGQEPLKELKREDENALPEEDDKTKPQDDAYLTESGHILLDYLNLNSAVAK”, the “soluble on expression in E. coli” value is reported as “not soluble”.
To “MDAAKVRSEFDEKMMRYALELADKAEALGEIPVGAVLVDDARNIIGEGWNLSIVQSDPTAHAEIIALRNGAKNIQNYRLLNSTLYVTLEPCTMCAGAILHSRIKRLVFGASDYKTGAIGSRFHFFDDYKMNHTLEVTSGVLAEECSQKLSTFFQKRREEKKIEKALLKSLSDKLEHHHHHH” belongs “not soluble”; to “MSLKNLHPIMLAGTGSDVGKSVIAAALCRIFKQDGYRPAPFKAQNMALNSYATPEGLEIGRAQAVQAEAAGVPCHTDMNPLLLKPSSDHTSQVVLNGRPIGNRNAFEYFRKEGREELRQEVNAAFDRLAARYNPIVMEGAGSISEINLRDTDLVNMPMACYADADVILVADIDRGGVFASVYGSVMLQTPEDKKRIKGVIINKFRGDIRLFESGVKMMEDLCGIPVLGIIPYYRNIHIEEEDSVGLDYKRMQAVEGKINIAVVLLRHLSNFTDFNRLERDERVHLYYTNNTEDLAKADIILLPGSKSTLDDLYELRRNGVAQAVLRAHREGVTVMGICGGYQLMGLEIHDPEGVEGEIRQLPGLGLLPVITTMQGEKVTRQVNFHFLENAETCQGYEIHMGETRPVPGEAVVPLNKLEDGGEDGCFVNQKCMGSYIHGILDNQAFIDYLLEPYAEKLEEGHHHHHH”, “not soluble”.
